These results are taken from IntAct's records for PubMed 16924104.

B1: Polyunsaturated fatty acid 5-lipoxygenase (Homo sapiens), P09917 (parent)
chain: MPSYTVTVATGSQWFAGTDDYIYLSLVGSAGCSEKHLLDKPFYNDFERGAVDSYDVTVDEELGEIQLVRIEKRKYWLNDDWYLKYITLKTPHGDYIEFPCYRWITGDVEVVLRDGRAKLARDDQIHILKQHRRKELETRQKQYRWMEWNPGFPLSIDAKCHKDLPRDIQFDSEKGVDFVLNYSKAMENLFINRFMHMFQSSWNDFADFEKIFVKISNTISERVMNHWQEDLMFGYQFLNGCNPVLIRRCTELPEKLPVTTEMVECSLERQLSLEQEVQQGNIFIVDFELLDGIDANKTDPCTLQFLAAPICLLYKNLANKIVPIAIQLNQIPGDENPIFLPSDAKYDWLLAKIWVRSSDFHVHQTITHLLRTHLVSEVFGIAMYRQLPAVHPIFKLLVAHVRFTIAINTKAREQLICECGLFDKANATGGGGHVQMVQRAMKDLTYASLCFPEAIKARGMESKEDIPYYFYRDDGLLVWEAIRTFTAEVVDIYYEGDQVVEEDPELQDFVNDVYVYGMRGRKSSGFPKSVKSREQLSEYLTVVIFTASAQHAAVNFGQYDWCSWIPNAPPTMRAPPPTAKGVVTIEQIVDTLPDRGRSCWHLGAVWALSQFQENELFLGMYPEEHFIEKPVKEAMARFRKNLEAIVSVIAERNKKKQLPYYYLSPDRIPNSVAI
partner: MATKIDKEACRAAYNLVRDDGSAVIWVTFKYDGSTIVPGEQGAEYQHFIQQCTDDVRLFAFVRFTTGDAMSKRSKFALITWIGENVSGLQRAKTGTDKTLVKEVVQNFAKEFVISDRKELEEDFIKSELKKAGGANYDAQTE

The experiment covers variants of B1. The note with it: with cotl1_human COTL1, Q14019.
As for W14A;W76A;W103A, the “effect of a mutation on the interaction” value is reported as “disrupting interaction strength”.
